Source: PMC3991421
pKd: −log10 of the molar value.

Target: hydroxycoumarin-labeled M2 C terminus (…) (influenza A virus)
Assay: […]; fluorescence anisotropy, equilibrium; […], in triplicate

Substance: purified LC3 (from UniProt Q9GZQ8 1-120) (natural protein)
- pKd: 5.02
